Measured values: patent publication US20110053841A1

Molecular target: FGFR3
Assay: cell-based or functional assay

Row | concentration at which FDCP-FGFR3 cells proliferate (XTT) [ng/mL] | concentration inducing a growth response of FDCP-FGFR3 cells (XTT) [ng/mL] | Substance
1 | > 0.1 | – | FGF4^Δ54N165R (from UniProt P08620 55-206) (ligand)
2 | – | > 25 | FGF4^Δ78 (from UniProt P08620 79-206) (ligand)
